Measured values reported in the Human Domainome abundance scans (Beltran et al. 2025).
± gives the uncertainty stated by the source.

Assay: abundance fitness (aPCA) (normalised: wild type 0, dead -1); higher = more abundant; growth selection in yeast, the domain comes from the species named
Conditions: Homo sapiens

| Substance | abundance fitness |
| --- | --- |
| Scaffold attachment factor B1 V48L, Q15424 | -0.056 ± 0.065 |
| Scaffold attachment factor B1 V48M, Q15424 | -0.083 ± 0.082 |
| Scaffold attachment factor B1 V48N, Q15424 | -0.362 ± 0.11 |
| Scaffold attachment factor B1 V48P, Q15424 | -0.691 ± 0.091 |
| Scaffold attachment factor B1 V48Q, Q15424 | -0.388 ± 0.096 |
| Scaffold attachment factor B1 V48R, Q15424 | -0.078 ± 0.057 |
| Scaffold attachment factor B1 V48S, Q15424 | -0.255 ± 0.059 |
| Scaffold attachment factor B1 V48T, Q15424 | -0.254 ± 0.083 |
| Scaffold attachment factor B1 V48W, Q15424 | -0.281 ± 0.062 |
| Scaffold attachment factor B1 V56A, Q15424 | -0.101 ± 0.059 |
| Scaffold attachment factor B1 V56C, Q15424 | -0.177 ± 0.095 |
| Scaffold attachment factor B1 V56E, Q15424 | -0.15 ± 0.078 |
| Scaffold attachment factor B1 V56F, Q15424 | -0.414 ± 0.072 |
| Scaffold attachment factor B1 V56G, Q15424 | -0.305 ± 0.063 |
| Scaffold attachment factor B1 V56H, Q15424 | -0.226 ± 0.076 |
| Scaffold attachment factor B1 V56I, Q15424 | -0.126 ± 0.067 |
| Scaffold attachment factor B1 V56K, Q15424 | -0.197 ± 0.064 |
| Scaffold attachment factor B1 V56M, Q15424 | -0.16 ± 0.07 |
| Scaffold attachment factor B1 V56N, Q15424 | -0.169 ± 0.064 |
| Scaffold attachment factor B1 V56Q, Q15424 | -0.249 ± 0.083 |
| Scaffold attachment factor B1 V56R, Q15424 | -0.121 ± 0.054 |
| Scaffold attachment factor B1 V56S, Q15424 | -0.129 ± 0.049 |
| Scaffold attachment factor B1 V56T, Q15424 | -0.202 ± 0.069 |
| Scaffold attachment factor B1 V56W, Q15424 | -0.476 ± 0.052 |
| Scaffold attachment factor B1 V56Y, Q15424 | -0.345 ± 0.07 |
